In publication PMC7804152, “Structural basis for the multi-activity factor Rad5 in replication stress tolerance”:

What was measured:
KlRad5 [1] = biological target: T1, KlRad5 (Kluyveromyces lactis, UniProt Q6CJM4 163-1114); test: fluorescence polarization; 70 mM NaCl; similar to 5'-FAM; FP: 20 mM Tris pH 7.5, 50 mM (dsDNA, KlHIRAN) or 70 mM (ssDNA) NaCl, 2 mM MgCl2, 1 nM DNA, room temp; EMSA: 20 mM Tris pH 7.5, 100 mM KCl, 0.5 mM DTT, 3% glycerol, 2 mM MgCl2, 250 ug/mL BSA, 4 C; pull-down: 20 mM Tris pH 7.5, 50 mM NaCl, 4 C; settings: protein: recombinant; tags: none; label: 3'-FAM
T1 sequence: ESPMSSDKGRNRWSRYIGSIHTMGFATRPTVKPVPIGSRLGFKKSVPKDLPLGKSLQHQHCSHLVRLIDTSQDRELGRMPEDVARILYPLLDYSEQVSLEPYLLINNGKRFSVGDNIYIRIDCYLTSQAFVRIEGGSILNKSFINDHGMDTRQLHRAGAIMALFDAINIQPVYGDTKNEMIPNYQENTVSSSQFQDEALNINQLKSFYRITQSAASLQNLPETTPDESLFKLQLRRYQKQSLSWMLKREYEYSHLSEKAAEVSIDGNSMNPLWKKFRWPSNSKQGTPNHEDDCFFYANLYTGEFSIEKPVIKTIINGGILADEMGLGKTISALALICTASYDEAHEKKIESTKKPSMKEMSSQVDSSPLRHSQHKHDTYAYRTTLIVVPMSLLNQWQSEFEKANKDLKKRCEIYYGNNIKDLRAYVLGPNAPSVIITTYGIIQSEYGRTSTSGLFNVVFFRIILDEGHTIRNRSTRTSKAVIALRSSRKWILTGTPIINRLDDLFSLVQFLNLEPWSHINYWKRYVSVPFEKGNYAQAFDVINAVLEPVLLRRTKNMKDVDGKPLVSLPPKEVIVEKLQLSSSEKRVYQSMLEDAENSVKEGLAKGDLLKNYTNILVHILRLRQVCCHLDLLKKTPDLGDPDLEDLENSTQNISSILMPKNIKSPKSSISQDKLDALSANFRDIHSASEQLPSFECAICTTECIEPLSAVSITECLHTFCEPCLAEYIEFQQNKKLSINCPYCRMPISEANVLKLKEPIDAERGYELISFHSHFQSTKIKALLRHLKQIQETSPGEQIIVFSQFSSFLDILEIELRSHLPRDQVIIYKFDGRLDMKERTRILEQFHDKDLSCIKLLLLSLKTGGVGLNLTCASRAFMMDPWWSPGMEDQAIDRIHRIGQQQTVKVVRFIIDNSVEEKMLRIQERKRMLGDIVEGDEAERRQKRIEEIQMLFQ

HsHIRAN = biological target: T2, HsHIRAN (Homo sapiens, UniProt Q14527 55-180); test: EMSA; strong preference for free 3'-OH; FP: 20 mM Tris pH 7.5, 50 mM (dsDNA, KlHIRAN) or 70 mM (ssDNA) NaCl, 2 mM MgCl2, 1 nM DNA, room temp; EMSA: 20 mM Tris pH 7.5, 100 mM KCl, 0.5 mM DTT, 3% glycerol, 2 mM MgCl2, 250 ug/mL BSA, 4 C; pull-down: 20 mM Tris pH 7.5, 50 mM NaCl, 4 C; settings: protein: recombinant; tags: His (pET28a), HA; label: 5'-FAM
T2 sequence: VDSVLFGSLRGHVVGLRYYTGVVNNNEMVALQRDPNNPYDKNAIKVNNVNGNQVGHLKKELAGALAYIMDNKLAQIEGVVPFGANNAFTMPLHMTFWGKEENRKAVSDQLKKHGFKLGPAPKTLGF

ScHIRAN = biological target: T3, ScHIRAN (Saccharomyces cerevisiae, UniProt P32849 171-375); test: EMSA; FP: 20 mM Tris pH 7.5, 50 mM (dsDNA, KlHIRAN) or 70 mM (ssDNA) NaCl, 2 mM MgCl2, 1 nM DNA, room temp; EMSA: 20 mM Tris pH 7.5, 100 mM KCl, 0.5 mM DTT, 3% glycerol, 2 mM MgCl2, 250 ug/mL BSA, 4 C; pull-down: 20 mM Tris pH 7.5, 50 mM NaCl, 4 C; settings: protein: recombinant; tags: intein-CBD cleaved off; label: 5'-FAM
T3 sequence: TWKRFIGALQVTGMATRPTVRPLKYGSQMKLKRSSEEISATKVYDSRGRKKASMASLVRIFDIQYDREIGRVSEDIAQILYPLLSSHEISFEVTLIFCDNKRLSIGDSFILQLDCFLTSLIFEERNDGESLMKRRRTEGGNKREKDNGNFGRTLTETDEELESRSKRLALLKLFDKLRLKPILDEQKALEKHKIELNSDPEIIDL

KlHIRAN = biological target: T4, KlHIRAN (Kluyveromyces lactis, UniProt Q6CJM4 174-341); test: as above; settings: protein: recombinant; tags: intein-CBD cleaved off; label: 5'-FAM
T4 sequence: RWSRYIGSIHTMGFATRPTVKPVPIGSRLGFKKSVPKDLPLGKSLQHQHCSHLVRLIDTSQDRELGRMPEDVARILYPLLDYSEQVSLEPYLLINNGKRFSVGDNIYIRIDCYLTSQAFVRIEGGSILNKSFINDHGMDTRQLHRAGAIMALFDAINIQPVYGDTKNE

His-KlRad5 = biological target: T5, His-KlRad5 (Kluyveromyces lactis, UniProt Q6CJM4 163-1114); test: fluorescence polarization; FP: 20 mM Tris pH 7.5, 50 mM (dsDNA, KlHIRAN) or 70 mM (ssDNA) NaCl, 2 mM MgCl2, 1 nM DNA, room temp; EMSA: 20 mM Tris pH 7.5, 100 mM KCl, 0.5 mM DTT, 3% glycerol, 2 mM MgCl2, 250 ug/mL BSA, 4 C; pull-down: 20 mM Tris pH 7.5, 50 mM NaCl, 4 C; settings: protein: recombinant; tags: N-terminal His6; label: 5'-FAM
T5 sequence: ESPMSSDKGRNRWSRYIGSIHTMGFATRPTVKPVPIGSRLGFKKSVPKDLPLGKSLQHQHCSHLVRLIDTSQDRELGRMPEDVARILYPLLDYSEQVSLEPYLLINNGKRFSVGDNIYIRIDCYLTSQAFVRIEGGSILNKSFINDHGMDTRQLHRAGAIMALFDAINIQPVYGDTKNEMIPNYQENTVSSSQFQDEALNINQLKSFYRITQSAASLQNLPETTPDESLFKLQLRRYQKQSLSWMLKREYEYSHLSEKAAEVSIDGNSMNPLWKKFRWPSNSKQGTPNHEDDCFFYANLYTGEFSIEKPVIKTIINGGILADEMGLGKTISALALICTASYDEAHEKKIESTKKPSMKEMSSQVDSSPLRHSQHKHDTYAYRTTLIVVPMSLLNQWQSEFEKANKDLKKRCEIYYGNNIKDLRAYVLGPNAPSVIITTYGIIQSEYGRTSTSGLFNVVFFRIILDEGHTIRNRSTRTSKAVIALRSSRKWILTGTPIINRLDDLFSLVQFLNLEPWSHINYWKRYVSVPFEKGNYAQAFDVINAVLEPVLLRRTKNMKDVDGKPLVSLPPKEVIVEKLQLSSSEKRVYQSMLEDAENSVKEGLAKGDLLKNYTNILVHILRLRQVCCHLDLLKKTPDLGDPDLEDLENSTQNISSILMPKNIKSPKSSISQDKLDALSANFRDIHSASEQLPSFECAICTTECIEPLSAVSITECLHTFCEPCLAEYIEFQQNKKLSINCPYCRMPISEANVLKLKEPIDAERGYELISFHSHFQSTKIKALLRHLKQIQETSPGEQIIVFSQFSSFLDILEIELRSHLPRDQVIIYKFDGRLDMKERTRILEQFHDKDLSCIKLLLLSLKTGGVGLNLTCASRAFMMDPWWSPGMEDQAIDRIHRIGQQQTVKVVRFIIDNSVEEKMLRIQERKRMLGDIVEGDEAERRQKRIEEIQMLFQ

KlRad5 [2] = biological target: T1, KlRad5; test: fluorescence polarization; 70 mM NaCl; FP: 20 mM Tris pH 7.5, 50 mM (dsDNA, KlHIRAN) or 70 mM (ssDNA) NaCl, 2 mM MgCl2, 1 nM DNA, room temp; EMSA: 20 mM Tris pH 7.5, 100 mM KCl, 0.5 mM DTT, 3% glycerol, 2 mM MgCl2, 250 ug/mL BSA, 4 C; pull-down: 20 mM Tris pH 7.5, 50 mM NaCl, 4 C; settings: protein: recombinant; tags: none; label: 5'-FAM

Does TTTTTTTCGTCTTCGGCAATTTTTT (ssDNA) [S1 ssDNA, 3'-FAM] bind (KlRad5 [1])?
Result: binds

Does TTTTTTTTTT (ssDNA) [dT10, 5'-FAM] bind (HsHIRAN)?
Result: binds

Does TTTTTTTTTT (ssDNA) [dT10, 5'-FAM] bind (ScHIRAN)?
Result: binds

Does TTTTTTTTTT (ssDNA) [dT10, 5'-FAM] bind (KlHIRAN)?
Result: binds

Does TTTTTTTCGTCTTCGGCAATTTTTT (ssDNA) [S1 ssDNA, 5'-FAM] bind (His-KlRad5)?
Result: binds

Does TTTTTTTCGTCTTCGGCAATTTTTT (ssDNA) [S1 ssDNA, 5'-FAM] bind (KlRad5 [2])?
Result: binds
